The data set concerns Escherichia coli TOP10. Briefly: shrunken log2 fold change of peptide-encoding DNA abundance (4.5 h post-induction vs induction); higher = less antimicrobial activity (less host growth inhibition). The note with it: time post-induction: 4.5 h; library: site-saturation at positions 5, 18, 19, 20.
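Also: peptides expressed intracellularly from a pBAD plasmid library in pooled LB shake-flask culture, induced with 0.3% L-arabinose, DNA abundance read by NGS, three biological replicates, DESeq2 with apeglm shrinkage.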

As for RRIRTRPPRLPRPRPRPISMPRP, the “shrunken log2 fold change” value was -0.262.

Turning to RRIRNRPPRLPRPRPRPNRQPRP, the “shrunken log2 fold change” value is -0.156.

On to RRIRIRPPRLPRPRPRPQDHPRP, for which the “shrunken log2 fold change” value was -0.466.

In the case of RRIRIRPPRLPRPRPRPRPMPRP, the “shrunken log2 fold change” value came out at 0.129.

Turning to RRIRSRPPRLPRPRPRPIFTPRP, the “shrunken log2 fold change” value is -0.275.

Turning to RRIRMRPPRLPRPRPRPYIAPRP, the “shrunken log2 fold change” value was -0.038.

On to RRIRDRPPRLPRPRPRPTLVPRP, for which the “shrunken log2 fold change” value worked out at 0.196.

As to RRIRTRPPRLPRPRPRPHMCPRP, the “shrunken log2 fold change” value was -0.195.

As for RRIRTRPPRLPRPRPRPRIVPRP, the “shrunken log2 fold change” value is -0.0873.

As for RRIRIRPPRLPRPRPRPWDFPRP, the “shrunken log2 fold change” value is -0.11.

On to RRIRSRPPRLPRPRPRPTVCPRP, for which the “shrunken log2 fold change” value is 0.0523.

On to RRIRTRPPRLPRPRPRPCWTPRP, for which the “shrunken log2 fold change” value is -0.442.

In the case of RRIRQRPPRLPRPRPRPWSGPRP, the “shrunken log2 fold change” value came to 0.082.

As for RRIRIRPPRLPRPRPRPWSMPRP, the “shrunken log2 fold change” value was -0.00809.

In the case of RRIRLRPPRLPRPRPRPKEWPRP, the “shrunken log2 fold change” value was 0.157.

For the sequence RRIRDRPPRLPRPRPRPYYFPRP, the “shrunken log2 fold change” value was -0.209.

As to RRIRPRPPRLPRPRPRPKYDPRP, the “shrunken log2 fold change” value was -0.612.

On to RRIRKRPPRLPRPRPRPNIHPRP, for which the “shrunken log2 fold change” value was -0.112.

Regarding RRIRVRPPRLPRPRPRPMAIPRP, the “shrunken log2 fold change” value was -0.11.

RRIRRRPPRLPRPRPRPHWVPRP: the “shrunken log2 fold change” value is 0.0391.

In the case of RRIRVRPPRLPRPRPRPVCIPRP, the “shrunken log2 fold change” value is -0.0826.

On to RRIRRRPPRLPRPRPRPWSCPRP, for which the “shrunken log2 fold change” value was found to be 0.0681.

On to RRIRSRPPRLPRPRPRPHHYPRP, for which the “shrunken log2 fold change” value was -0.998.

As for RRIRERPPRLPRPRPRPAPMPRP, the “shrunken log2 fold change” value amounted to 0.116.

In the case of RRIRERPPRLPRPRPRPIEAPRP, the “shrunken log2 fold change” value is -0.0164.

As for RRIRLRPPRLPRPRPRPCHWPRP, the “shrunken log2 fold change” value is -0.11.

As for RRIRERPPRLPRPRPRPVMHPRP, the “shrunken log2 fold change” value is -0.0979.

On to RRIRLRPPRLPRPRPRPPHDPRP, for which the “shrunken log2 fold change” value stood at 0.397.

With RRIRGRPPRLPRPRPRPEIPPRP, the “shrunken log2 fold change” value was 0.196.

With RRIRIRPPRLPRPRPRPCLTPRP, the “shrunken log2 fold change” value amounted to 0.0747.

Consider RRIRYRPPRLPRPRPRPSMNPRP, for which the “shrunken log2 fold change” value was -0.863.

Consider RRIRMRPPRLPRPRPRPFKHPRP, for which the “shrunken log2 fold change” value was -0.306.

With RRIRTRPPRLPRPRPRPHDFPRP, the “shrunken log2 fold change” value is 0.0369.

In the case of RRIRNRPPRLPRPRPRPTLKPRP, the “shrunken log2 fold change” value was determined as 0.0241.

For the sequence RRIRSRPPRLPRPRPRPPKCPRP, the “shrunken log2 fold change” value was -0.087.

For the sequence RRIRVRPPRLPRPRPRPWHFPRP, the “shrunken log2 fold change” value is -0.0232.

In the case of RRIRNRPPRLPRPRPRPEPLPRP, the “shrunken log2 fold change” value worked out at 0.00741.

Regarding RRIRRRPPRLPRPRPRPEQVPRP, the “shrunken log2 fold change” value was -0.0118.

As to RRIRERPPRLPRPRPRPSHCPRP, the “shrunken log2 fold change” value worked out at 0.0392.

Take RRIRCRPPRLPRPRPRPNGSPRP: the “shrunken log2 fold change” value was -0.398.

For RRIRWRPPRLPRPRPRPQKIPRP, the “shrunken log2 fold change” value is -0.178.

For RRIRLRPPRLPRPRPRPQSDPRP, the “shrunken log2 fold change” value is -0.205.

For RRIRFRPPRLPRPRPRPNRGPRP, the “shrunken log2 fold change” value was found to be 0.149.

In the case of RRIRKRPPRLPRPRPRPFSEPRP, the “shrunken log2 fold change” value is -0.0185.

As for RRIRPRPPRLPRPRPRPCTQPRP, the “shrunken log2 fold change” value is -0.106.

In the case of RRIRSRPPRLPRPRPRPVGYPRP, the “shrunken log2 fold change” value was found to be 0.093.

With RRIRPRPPRLPRPRPRPCDTPRP, the “shrunken log2 fold change” value is -0.193.

Consider RRIRYRPPRLPRPRPRPICEPRP, for which the “shrunken log2 fold change” value is -0.404.

As for RRIRDRPPRLPRPRPRPGPYPRP, the “shrunken log2 fold change” value was -0.079.

In the case of RRIRIRPPRLPRPRPRPVSLPRP, the “shrunken log2 fold change” value is -0.147.

As for RRIRWRPPRLPRPRPRPHTPPRP, the “shrunken log2 fold change” value is 0.0133.

Consider RRIRYRPPRLPRPRPRPTTRPRP, for which the “shrunken log2 fold change” value was -0.193.

RRIRARPPRLPRPRPRPHWGPRP: the “shrunken log2 fold change” value turned out to be 0.119.

For the sequence RRIRDRPPRLPRPRPRPDFDPRP, the “shrunken log2 fold change” value was found to be 0.541.

With RRIRPRPPRLPRPRPRPAPTPRP, the “shrunken log2 fold change” value worked out at 0.704.

For the sequence RRIRFRPPRLPRPRPRPSEYPRP, the “shrunken log2 fold change” value is -0.288.

As to RRIRIRPPRLPRPRPRPIQGPRP, the “shrunken log2 fold change” value is -0.0119.

RRIRWRPPRLPRPRPRPPDRPRP: the “shrunken log2 fold change” value is 0.166.

For the sequence RRIRDRPPRLPRPRPRPDVTPRP, the “shrunken log2 fold change” value was 0.149.

Regarding RRIRSRPPRLPRPRPRPHWIPRP, the “shrunken log2 fold change” value was -0.279.

Regarding RRIRSRPPRLPRPRPRPAYVPRP, the “shrunken log2 fold change” value is -0.137.

Turning to RRIRMRPPRLPRPRPRPVMCPRP, the “shrunken log2 fold change” value came out at 0.321.

Regarding RRIRLRPPRLPRPRPRPETLPRP, the “shrunken log2 fold change” value was 0.228.

For RRIRQRPPRLPRPRPRPYEPPRP, the “shrunken log2 fold change” value was determined as 0.00408.

As to RRIRIRPPRLPRPRPRPQDFPRP, the “shrunken log2 fold change” value is -0.1.

For the sequence RRIRVRPPRLPRPRPRPDWNPRP, the “shrunken log2 fold change” value is -0.343.

Consider RRIRKRPPRLPRPRPRPWGKPRP, for which the “shrunken log2 fold change” value came to 0.0646.

For RRIRQRPPRLPRPRPRPHSHPRP, the “shrunken log2 fold change” value came to 0.0496.

For the sequence RRIRARPPRLPRPRPRPQQSPRP, the “shrunken log2 fold change” value amounted to 0.54.

Regarding RRIRLRPPRLPRPRPRPPHGPRP, the “shrunken log2 fold change” value stood at 0.223.

As for RRIRHRPPRLPRPRPRPVKHPRP, the “shrunken log2 fold change” value came to 0.0596.

For the sequence RRIRPRPPRLPRPRPRPINTPRP, the “shrunken log2 fold change” value is -0.844.

In the case of RRIRIRPPRLPRPRPRPIEFPRP, the “shrunken log2 fold change” value is -0.0138.

With RRIRGRPPRLPRPRPRPKYIPRP, the “shrunken log2 fold change” value came to 0.167.

As for RRIRIRPPRLPRPRPRPHHKPRP, the “shrunken log2 fold change” value was -1.18.

On to RRIRWRPPRLPRPRPRPVGEPRP, for which the “shrunken log2 fold change” value came to 1.01.

On to RRIRMRPPRLPRPRPRPLKSPRP, for which the “shrunken log2 fold change” value was 0.11.

With RRIRNRPPRLPRPRPRPRTIPRP, the “shrunken log2 fold change” value was -0.221.

RRIRARPPRLPRPRPRPRFFPRP: the “shrunken log2 fold change” value turned out to be 0.453.

In the case of RRIRHRPPRLPRPRPRPATRPRP, the “shrunken log2 fold change” value was determined as 0.0209.

In the case of RRIRERPPRLPRPRPRPVQRPRP, the “shrunken log2 fold change” value came to 0.0476.

On to RRIRPRPPRLPRPRPRPDTFPRP, for which the “shrunken log2 fold change” value was -0.0596.

For RRIRERPPRLPRPRPRPPMNPRP, the “shrunken log2 fold change” value is -0.82.

RRIRTRPPRLPRPRPRPCYWPRP: the “shrunken log2 fold change” value came out at 0.0189.

As for RRIRDRPPRLPRPRPRPIHMPRP, the “shrunken log2 fold change” value was 0.0641.

Consider RRIRYRPPRLPRPRPRPKNDPRP, for which the “shrunken log2 fold change” value was -0.737.

For RRIRTRPPRLPRPRPRPKFQPRP, the “shrunken log2 fold change” value worked out at 0.114.

On to RRIRWRPPRLPRPRPRPYYDPRP, for which the “shrunken log2 fold change” value was -0.262.

In the case of RRIRSRPPRLPRPRPRPNAPPRP, the “shrunken log2 fold change” value came out at 0.0774.

Regarding RRIRKRPPRLPRPRPRPNKPPRP, the “shrunken log2 fold change” value is -0.0304.

Turning to RRIRHRPPRLPRPRPRPEPRPRP, the “shrunken log2 fold change” value was 0.137.

(Values after the supplement of paper PMC9112550, “Optimization of the antimicrobial peptide Bac7 by deep mutational scanning” (BMC Biology, 2022).)
